For the data set, the target named is UL12 alkaline nuclease (Herpes simplex virus 1) (UniProt P04294). The experiment in a line: cleavage_in_vitro. The settings on record: optimal nuclease conditions; 0.06 at strand exchange conditions (pH 7.5, 1 mM MgCl2, 40 mM NaCl, 37 C).

This is an account of results in patent US20040141994.

UL12 alkaline nuclease (Herpes simplex virus 1), sequence (P04294 whole entry): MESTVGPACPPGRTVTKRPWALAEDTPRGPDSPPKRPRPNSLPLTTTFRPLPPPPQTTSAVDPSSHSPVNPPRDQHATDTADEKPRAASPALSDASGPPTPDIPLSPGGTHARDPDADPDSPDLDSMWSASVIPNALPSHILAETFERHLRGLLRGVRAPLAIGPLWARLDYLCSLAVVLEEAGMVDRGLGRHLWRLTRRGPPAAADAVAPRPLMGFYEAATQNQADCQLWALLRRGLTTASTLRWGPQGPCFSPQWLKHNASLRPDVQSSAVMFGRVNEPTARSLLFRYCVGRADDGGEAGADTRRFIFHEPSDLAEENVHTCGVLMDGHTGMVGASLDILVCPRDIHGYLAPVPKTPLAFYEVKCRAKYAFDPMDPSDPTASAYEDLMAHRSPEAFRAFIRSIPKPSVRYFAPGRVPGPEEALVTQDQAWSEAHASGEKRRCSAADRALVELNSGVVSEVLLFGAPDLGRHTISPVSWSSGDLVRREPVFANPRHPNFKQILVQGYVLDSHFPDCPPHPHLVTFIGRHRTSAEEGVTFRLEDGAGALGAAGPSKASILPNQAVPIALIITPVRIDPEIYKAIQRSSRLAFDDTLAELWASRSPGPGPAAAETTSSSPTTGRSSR

E. coli chromosomal DNA showed an activity (ng DNA/min/ng protein) of 0.2.
